Experimental data reported in US20110098218A1 (AGENCY FOR SCIENCE TECHNOLOGY AND RESEARCH, published 2011).

B1: FoxO1^(1-123)-(168-652) (other, UniProt Q9R1E0 1-123, looked up)
chain: MAEAPQVVETDPDFEPLPRQRSCTWPLPRPEFNQSNSTTSSPAPSGGAAANPDAAASLASASAVSTDFMSNLSLLEESEDFARAPGCVAVAAAAAASRGLCGDFQGPEAGCVHPAPPQPPPTGKAIESSAEKRLTLSQIYEWMVKSVPYFKDKGDSNSSAGWKNSIRHNLSLHSKFIRVQNEGTGKSSWWMLNPEGGKSGKSPRRRAASMDNNSKFAKSRGRAAKKKASLQSGQEGPGDSPGSQFSKWPASPGSHSNDDFDNWSTFRPRTSSNASTISGRLSPIMTEQDDLGDGDVHSLVYPPSAAKMASTLPSLSEISNPENMENLLDNLNLLSSPTSLTVSTQSSPGSMMQQTPCYSFAPPNTSLNSPSPNYSKYTYGQSSMSPLPQMPMQTLQDSKSSYGGLNQYNCAPGLLKELLTSDSPPHNDIMSPVDPGVAQPNSRVLGQNVMMGPNSVMPAYGSQASHNKMMNPSSHTHPGHAQQTASVNGRTLPHVVNTMPHTSAMNRLTPVKTPLQVPLSHPMQMSALGSYSSVSSCNGYGRMGVLHQEKLPSDLDGMFIERLDCDMESIIRNDLMDGDTLDFNFDNVLPNQSFPHSVKTTTHSWVSG
B2: FoxO1^(1-123) (other)
chain: MAEAPQVVETDPDFEPLPRQRSCTWPLPRPEFNQSNSTTSSPAPSGGAAANPDAAASLASASAVSTDFMSNLSLLEESEDFARAPGCVAVAAAAAASRGLCGDFQGPEAGCVHPAPPQPPPTG

Molecular target: T1, Flag-tagged mouse STAT3 (pXJ40-Flag-mSTAT3) (mouse, UniProt P42227 1-770, limits assumed, phosphorylated after leptin treatment (phospho-STAT3); the site is not given)
T1 construct: also called phospho-STAT3; Flag-tagged STAT3; not shown: Flag tag
T1 sequence (P42227 whole entry): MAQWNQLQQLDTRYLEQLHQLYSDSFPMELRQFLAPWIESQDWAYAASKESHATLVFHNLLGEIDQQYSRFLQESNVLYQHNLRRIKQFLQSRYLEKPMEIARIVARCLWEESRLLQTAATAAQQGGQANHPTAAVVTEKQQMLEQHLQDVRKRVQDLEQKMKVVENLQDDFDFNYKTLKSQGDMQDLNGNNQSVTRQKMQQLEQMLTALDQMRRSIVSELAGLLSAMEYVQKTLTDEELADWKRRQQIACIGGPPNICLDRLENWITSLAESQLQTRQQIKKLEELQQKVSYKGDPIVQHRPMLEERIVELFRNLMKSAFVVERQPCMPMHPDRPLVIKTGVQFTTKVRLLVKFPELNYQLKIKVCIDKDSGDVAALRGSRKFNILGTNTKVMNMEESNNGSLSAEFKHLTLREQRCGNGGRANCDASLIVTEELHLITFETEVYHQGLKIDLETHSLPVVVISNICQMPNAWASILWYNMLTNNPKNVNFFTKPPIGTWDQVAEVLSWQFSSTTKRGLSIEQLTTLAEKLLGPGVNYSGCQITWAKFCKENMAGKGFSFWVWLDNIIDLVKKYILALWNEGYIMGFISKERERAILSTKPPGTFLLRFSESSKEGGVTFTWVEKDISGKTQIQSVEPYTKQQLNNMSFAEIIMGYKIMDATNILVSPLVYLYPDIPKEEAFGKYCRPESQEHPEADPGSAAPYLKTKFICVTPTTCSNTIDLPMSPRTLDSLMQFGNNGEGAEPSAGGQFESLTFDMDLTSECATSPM
Test: coimmunoprecipitation

Binder	binding result
B1	no binding
B2	no binding
